This note sets out measurements from patent US20240052047A1 (Pfizer, published 2024).

The target in one assay is T1, Human IL27RA (human, UniProt Q6UWB1 33-516).
T1 construct: Soluble analyte in SPR and antigen in ELISA/screens; also called huIL27R
T1 sequence: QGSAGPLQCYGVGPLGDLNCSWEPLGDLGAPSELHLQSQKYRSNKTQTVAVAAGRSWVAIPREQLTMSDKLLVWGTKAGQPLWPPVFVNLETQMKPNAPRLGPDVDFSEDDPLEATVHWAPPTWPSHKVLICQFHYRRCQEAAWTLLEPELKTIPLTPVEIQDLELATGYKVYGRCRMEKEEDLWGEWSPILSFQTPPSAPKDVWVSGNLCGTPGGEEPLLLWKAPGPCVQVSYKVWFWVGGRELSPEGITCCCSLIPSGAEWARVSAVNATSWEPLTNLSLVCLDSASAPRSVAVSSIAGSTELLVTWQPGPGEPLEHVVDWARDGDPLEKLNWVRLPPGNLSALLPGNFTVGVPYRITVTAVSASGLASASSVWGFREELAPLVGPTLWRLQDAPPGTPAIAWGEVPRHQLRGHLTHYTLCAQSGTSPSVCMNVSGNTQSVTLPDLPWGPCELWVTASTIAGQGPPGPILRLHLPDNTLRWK
In words: SPR Biacore 8K+, 37 C; mAb-4894 captured by anti-Fab, antigen as analyte; 1:1 Langmuir fit. How it is done:
(§1) The crossreactivity of mAb-4894 to human and cynomolgus monkey antigens, gp130 (human—SEQ ID NO: 45, cynomolgus—SEQ ID No: 46) and IL27RA (human—SEQ ID NO: 41, cynomolgus—SEQ ID No: 42), was measured by surface plasmon resonance by anti-FAB capture of mAb-4894 (containing arms of anti-IL27RA-4880 EE and anti-gp130-4875 RR) on a biacore chip. Human or cynomolgus monkey IL27RA or gp130 was flowed over the chip and on and off rates were determined, and the affinity constants calculated.
(§2) Flow cell 1 for each channel was used as a reference flow cell. After antibody capture, three-fold dilution series of cytokines with concentrations ranging from 405 nM to 15 nM for huGP130 and cyGP130 and 45 nM to 1.67 nM for huIL27R and cyIL27R or HBS-EP+ buffer were injected over the sensor surface for 60 seconds at 50 μl/minute. The dissociation was monitored for 600 seconds and the surface was regenerated with 2 injections of 10 mM Glycine pH 1.7 at 30 μl/minute. The data was double referenced (Myszka, D., J. Mol. Recognit 1999; 279-284). Binding affinities and rate constants were determined for human and cyno GP130 and IL27R by fitting the resulting sensorgram data to a 1:1 Langmuir model in BIAcore Insight Evaluation software version 3.0.12.15655 (Cytiva).
On the technique in general: SPR reads the build-up and loss of mass on a sensor chip optically.

The target of a further assay is T2, Human gp130 (human, UniProt P40189 23-619).
T2 construct: Soluble analyte in SPR and antigen in ELISA/screens; also called huGP130
T2 sequence: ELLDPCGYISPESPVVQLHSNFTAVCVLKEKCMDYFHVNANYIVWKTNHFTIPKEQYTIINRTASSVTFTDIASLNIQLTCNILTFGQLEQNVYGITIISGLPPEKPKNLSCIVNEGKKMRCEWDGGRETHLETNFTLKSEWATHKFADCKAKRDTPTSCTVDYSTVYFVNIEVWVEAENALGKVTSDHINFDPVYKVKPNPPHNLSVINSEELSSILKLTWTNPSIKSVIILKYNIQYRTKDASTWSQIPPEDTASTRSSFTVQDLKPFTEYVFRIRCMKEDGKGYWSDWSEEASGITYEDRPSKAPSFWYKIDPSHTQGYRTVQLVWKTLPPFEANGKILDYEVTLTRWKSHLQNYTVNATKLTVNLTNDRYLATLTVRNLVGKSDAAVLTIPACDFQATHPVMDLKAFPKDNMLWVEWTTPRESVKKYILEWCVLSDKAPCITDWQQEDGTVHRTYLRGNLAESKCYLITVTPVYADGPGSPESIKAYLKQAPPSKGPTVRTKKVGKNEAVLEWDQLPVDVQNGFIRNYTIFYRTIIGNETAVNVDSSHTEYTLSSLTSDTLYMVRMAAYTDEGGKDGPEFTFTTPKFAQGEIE
The assay is described as above. How it is done: as §1, §2

Another assay addresses T3, Cynomolgus monkey IL27RA (cynomolgus monkey).
T3 construct: Soluble SPR analyte; also called Cyno IL27R; cyIL27R
T3 chain: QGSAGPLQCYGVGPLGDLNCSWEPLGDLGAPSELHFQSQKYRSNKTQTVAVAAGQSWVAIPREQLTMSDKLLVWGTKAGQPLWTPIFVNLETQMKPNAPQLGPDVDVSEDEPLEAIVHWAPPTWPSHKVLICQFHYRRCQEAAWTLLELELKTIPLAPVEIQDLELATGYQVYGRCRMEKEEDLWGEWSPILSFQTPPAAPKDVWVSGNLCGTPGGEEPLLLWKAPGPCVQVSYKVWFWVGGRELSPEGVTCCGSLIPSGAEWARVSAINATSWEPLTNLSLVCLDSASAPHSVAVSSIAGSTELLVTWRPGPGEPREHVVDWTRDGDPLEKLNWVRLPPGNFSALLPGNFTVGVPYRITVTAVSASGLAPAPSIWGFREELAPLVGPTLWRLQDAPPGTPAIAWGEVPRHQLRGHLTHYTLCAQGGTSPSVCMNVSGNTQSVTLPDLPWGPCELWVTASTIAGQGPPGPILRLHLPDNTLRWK
The assay is described as above. On the procedure: as §1, §2

Assay [1] deals with T4, human IL27 receptor (IL27RA/gp130 heterodimer) on human cells (human, UniProt Q6UWB1 33-636; P40189 23-918). In words: cell-based or functional assay.
Assay [2] concerns the target T4, human IL27 receptor (IL27RA/gp130 …). Briefly: cell-based or functional assay. This is another data set of the same source.

B1: mAb-4894 anti-IL27RA/gp130 bispecific antibody (bispecific antibody, human IgG1)
heavy 1: EVQLVESGGGLVQPGGSLRLSCAASGFTFEYFGLQWVRQAPGKGLEWIGYTSSGGNYEYYEETLKGRFTISRDNAKNSLYLQMNSLRAEDTAVYYCARTKTGDYWGQGTLVTVSSASTKGPSVFPLAPSSKSTSGGTAALGCLVKDYFPEPVTVSWNSGALTSGVHTFPAVLQSSGLYSLSSVVTVPSSSLGTQTYICNVNHKPSNTKVDKKVEPKSCEKTHTCPPCPAPEAAGAPSVFLFPPKPKDTLMISRTPEVTCVVVDVSHEDPEVKFNWYVDGVEVHNAKTKPREEQYNSTYRVVSVLTVLHQDWLNGKEYKCKVSNKALPAPIEKTISKAKGQPREPQVYTLPPSREEMTKNQVSLTCEVKGFYPSDIAVEWESNGQPENNYKTTPPVLDSDGSFFLYSKLTVDKSRWQQGNVFSCSVMHEALHNHYTQKSLSLSPGK
light 1: DIQMTQSPSSLSASVGDRVTITCRASQDIGNSLTWYQQKPGKAPKRVIFGATGLAAGVPSRFSGSGSGTDFTLTISSLQPEDFATYYCLQSKQYPYTFGQGTKLEIKRTVAAPSVFIFPPSDEQLKSGTASVVCLLNNFYPREAKVQWKVDNALQSGNSQESVTEQDSKDSTYSLSSTLTLSKADYEKHKVYACEVTHQGLSSPVTKSFNRGEC
heavy 2: QVQLVQSGAEVKKPGSSVKVSCKVSGGSISSYYWSWVRQAPGQGLEWIGRIYITGNTNYNPSLKDRVTMTVDTSTSTHYMELSSLRSEDTAVYYCAREGPKLGIFDYWGQGTLVTVSSASTKGPSVFPLAPSSKSTSGGTAALGCLVKDYFPEPVTVSWNSGALTSGVHTFPAVLQSSGLYSLSSVVTVPSSSLGTQTYICNVNHKPSNTKVDKKVEPKSCRKTHTCPPCPAPEAAGAPSVFLFPPKPKDTLMISRTPEVTCVVVDVSHEDPEVKFNWYVDGVEVHNAKTKPREEQYNSTYRVVSVLTVLHQDWLNGKEYKCKVSNKALPAPIEKTISKAKGQPREPQVYTLPPSREEMTKNQVSLTCLVKGFYPSDIAVEWESNGQPENNYKTTPPVLDSDGSFFLYSRLTVDKSRWQQGNVFSCSVMHEALHNHYTQKSLSLSPGK
light 2: DIQMTQSPSSLSASVGDRVTITCRASQSVSSSYLAWYQQKPGKAPKLLIYGTESRATGVPSRFSGSGSGTDFTLTISSLQPEDFATYYCQQYGGYPTFGGGTKVEIKRTVAAPSVFIFPPSDEQLKSGTASVVCLLNNFYPREAKVQWKVDNALQSGNSQESVTEQDSKDSTYSLSSTLTLSKADYEKHKVYACEVTHQGLSSPVTKSFNRGEC
notes: Human IgG1 EE/RR heterodimer with L234A, L235A, G237A (EU); also called GBT-IL27R-4894; GBT-IL-27R-4894
For B1, in the assay with Human IL27RA, binding was put at a Kd of 0.11 nM; the koff – broadly, the first-order rate constant of dissociation – was found to be 0.00011 s⁻¹; the kon (commonly the second-order rate constant of association) was 998000 M⁻¹ s⁻¹. Also, in the assay with Human gp130, binding was put at a Kd of 170 nM, the koff was determined as 0.0566 s⁻¹ and the association rate constant (kon) was determined as 337000 M⁻¹ s⁻¹. In the assay with Cynomolgus monkey IL27RA, the Kd (usually the equilibrium constant for the complex coming apart) amounted to 1.68 nM, the koff came out at 0.00195 s⁻¹ and the kon worked out at 1.17e+06 M⁻¹ s⁻¹. Besides, the “Th17 Cells IL-17A IC50 (MSD immunoassay of supernatant)” value in assay [1] is 0.0055 nM. Moreover, in assay [2], the “IDO1 mRNA expression in primary cultured human colonocytes, average EC50” value was 20 nM; the “pSTAT1 in CD3+ T cells from human whole blood, average EC50” value stood at 0.43 nM; the “pSTAT3 in CD3+ T cells from human whole blood, average EC50” value was 0.23 nM.
